Results taken from the RNAGym collection of RNA variant scans (doi:10.1073/pnas.2313332121).

B1: TPR t1 (parent)
chain: GACCAAUCUGCCCUCAGAGCUCGAGAACAUCUUCGGAUGCAGAGGAGGCAGGCUUCGGUGGCGCGAUAGCGCCAACGUCCUCAACCUCCAAUGCAUCCCACCACAUGAUGAUGCCUGAAGAGCCUUGGUUUUUUG

Variants of: B1
Experiment: polymerase ribozyme fitness, log enrichment relative to wild type (log ratio); higher = more active; in vitro selection for triplet polymerase activity
Outline: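 Fitness is a logarithmic measure of how a genotype enriched relative to the wild type, with replicate averages weighted by inverse variance. The logarithm uses base 2, and enrichment came from Illumina sequencing of input and output libraries. Those libraries were PCR-built, transcribed mutants of each subunit of a heterodimeric triplet polymerase ribozyme, passed through one triplicate in vitro selection round that included frozen incubation at −7 °C, gel excision of extended constructs and streptavidin-bead capture. Genotypes were kept only if they had ≥10 input reads and ≥1 read per output.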

Row | Variant | polymerase ribozyme fitness (log ratio)
1 | GACCAAUCUGCUCUCAGAGCUCGAGAGCAUCUUCGGAUGCAGAGGAGCCAGGCUUCGGUGGCGCGAUAGCGCCAACGUCCUCAACCUCCAAUGCAUCCCACCACAUGAUGAUGCCUGAAGAGCCUUGGUUUUUUG | -1.97
2 | GACCAAUCUGCCCUCAGAGCUCGAGAACAUCUUCGGAUGCAGAGGAGGCAGGCUUCGGUGGCGCGAUAGCGCCAACGUCCUCAACCUCCAAUGCAUCCCACCACAUGAUGCUGCCUGACGAGCCUUUGUUUUUUG | -2.96
3 | GACCAAUCUGCCCUCAGAGCUCGAGAACAUCUUCGGAUGUAGAGGAGGCAGGCUUCGGUUGCGCGAUAGCGCCAACGUCCUCAACCUCCAAUGAAUCCCAGCACAAGAUGAUGCCUGAAGAGCCUUGGUUUUUUG | -1.22
4 | GACCAAUCUGCCCUCAGAGCUCGAGAACAUCUUCGGAUGCAGAGGAGGAAGGCUUCGGUGGCGCGAUAGCGCAAACGUCCUCAACCUCCAAUGCAUCCCACCACAUGAUGAUGCCUGAAGAGCCUUGGUUUUUUG | 0.508
5 | GACCAAUCUGCCCUCAGAGCUCGAGAACAUCUUCGGAUGCAGAGGAGGCAGGCUUCGGUGACGCGAUAGCGCCAACGCCCUCAACCUGCAAUGCAUCCCACCACAUGAUGAUGCCUGAAGAGCCUUGGUUUUUUG | -0.472
6 | GACCAAUCUGCCCUCAGAGCUCGAGAACAUCUUCGGAUGCAGAGGAGGCAGGCUUCGGUGGCGCGAUAGCACCAACGUCCUUAACCUCCAAUGCAUCCCACCACAUGAUGAUGCCUGAAGAGCCUUGGUUUUUUG | -0.155
7 | GACCAAUCUGCCCUCAGAGCUCGAGAACAUCUUCGGAUGCAGAGGAGGCAGGCUUCGGUGGCGCGAUAGCGCCAACGUCCUCAACCUCCAAUGCGUCCCACCACAUGAUGGUGCCUGAAGAGCCUUGGUUUUUUG | 0.572
8 | GACCAAUCUGCCCUCAGAGCUCGAGAACAUCUUCGGAUUCAGAGGAGGCAGGCUUCGGUGGCGCGAUAGCGCCAACGUCCUCAACCUUCAAUGCAUCCCACCACAUUAUGAUACCUGAAGAACCUUGGUUUUUUG | -6.96
9 | GACCAAUCUGCCCUCAGAGCUCGAGAACAUCUUCGGAUGCAGAGGAGGCAGGCUUCGGUGGCGCGAUAACGCCAACGUCCUCAACCUCCAAUGCAUCCCACCACAUGAUGAUGCCUGAAGAGCCUUGGUAUUUUG | -3.11
10 | GACCAAUCUGCCCUCAGAGCUGGAGAACAUCUUCGGAUGCAGAGGAGGCAGGCUUCAGUGGCACGAUAGCGCCAACGUCCUCAACCUCCAAUGCAUCCCAACACUUGAUGAUGCCUGAAGAGCCUUGGUUUUUUG | -6.73
11 | GACCAAUCUGCCCUCAGAGCUCGAGAACUUCUUCGGAUGCAGAGGAGGCAGGCGGCGGUGGCGCGAUAGCGCCAACGUCCUCAACCUCCAAUGCAUCCCAUCACAUGAUGAUGCCUGAAGAGCCUUGGUUUUUUG | -4.04
12 | GACCAAUCUGCCCUCAGAGCUCGAGAACAUCUUCGGAUGCUGAGGAGGGAGUCUUCGGUGGCGCGAUAGCGCCAACGUCCUCAACCUCCAAUGCAUCCCACCACAUGAUGACGCCUGAAGAGCCUUGGUUUUUUG | -1.09
13 | GACCAAUCGGCCCUCAGAGCUCGAGAACAUCUUCGGAUGCAGAGGAGGCAGGCUUGGGUGGCGCGAUAGCGCCAACGUCCUCAACCUCCAAUGCAUCCCACCUCAUGAUGAUGCCUGAAGAGCCUUGGUUUUUUG | -4.39
14 | GACCAAUCUGCCCUCAUAGCUCGAGAACAUCUUCGGUUGCAGAGGAGGCAGGCUUCGGUAGCGCGAUAGCGCCAACGUCCUCAACCUCCAAUGCAUCCCACCACAUGAUGAUGCCUGAAGAGCCUUGGUUUUUUG | -2.43
15 | GACCAAUCUGUCCUCAGAGCUCGAGAACAUCUUCGGAUGCAGAGGAUGCAGGCUUCGGUGGUGCGAUAGCUCCAACGUCCUAAACCUCCAAUGCUUCCCACCACAUGAUGAUGCCUGAAGAGCCUUGGUUUUUUG | -2.79
16 | GACCAAUCUUCCCUCAGAGCUCGAGAACAUCUUCGGAUGCAUAGGAGGCAGGCUUCGGUGGCGCGAUAGCGCCAACGUCCUCAACCUCCAAUGCAUCCCACCACAUGAUGAUGCCUGAAGAGCCUUGGUUUUUUG | -2.78
17 | GACCAAUCUGCCCUCAGAGCUCGAGAACAUCUUCGGAUUCAGAGGAGGCAGGCUUCGGUGGCGCGAUAGCGCCAACGUCCUCAACCUCCAAUGCAUCCCACCACAUGAUGAUGCUUGAAGAGCCUUGGUUUUUUG | -1.86
18 | GACCAAUCUGCCCUCAGAGCUCGAGAACAUCUUCGGAUGCAGAGGAGGCAGGCUUCGCUGGCGCGAUAGCGCCAACGUCCUCAACCUCCAAUGCAUCCCACCACAUGAUGAUUCCUGAAGAGCCUUGGUUUUUUG | -2.87
19 | GACUAAUCUGCCCUCAGAGCUCGAGAACAUCUUCGGAUGCAGAGGAGACAGACUUCGGUGGCGCGAUAGCGCCAACGUCCUCAACCUCCAAAGCAUCCCACCACAUGAUGAUGCCUGAAGAGCCUUGGUUUUUUG | -5.54
20 | GACCAAUCUGCCCUCAGAGCUCGAGAACAUCUUCGGAUGCAGAGGAGGCAGGCUUCGGUCGCGCGAUAGCGCCAACGUCCUCAACAUCCAAUGCAUCCCACCACAUGAUGAUGCCUGAAGAGCCUUGGUUUUUUG | -2.44
21 | GACCAAUCUGCCCUCAGAGCUCGAGAACAUCUUCGUAUGCAGAGGAGGCAGGCUUCGGUGGCGCGAUAGCGCGAACGUCCUCAACCUCCAAUGCAUCCCACCACAAGAUGAUGCCUGAAGAGCCUUCGUUUUUUG | -2.55
